Assay results: US10100114B2, “Antibodies specific for TROP-2 and their uses” (RINAT NEUROSCIENCE CORP., priority 2011, dated 2018)
Where a chain is given by its changes, count along the chain named. Each block holds one molecule with its values, some of them ahead of it.

How the values were obtained:
SW620 (Trop-2 −) cells = assay: Flow cytometry binding, SW620 cells; assay type: cell-based; settings: 1 ug antibody
Protocol: For A431 cell staining, 200,000 cells were incubated with 0.5 ug antibody in 100 uL binding buffer (PBS (Phosphate Buffered Saline)+0.5% BSA (Bovine Serum Albumin)), followed by incubation with Dylight488-conjugated goat anti-human (Fab′)2-specific secondary antibody from Jackson immunoresearch Laboratories (West Grove, Pa.). For Colo205 and SW620 cells, 300,000 cells were used with 1 ug of primary antibody, followed by AlexaFluor 647 anti-human (Fab′)2-specific secondary antibody from Jackson immunoresearch Laboratories (West Grove, Pa.).
Similar to Example 7a), binding of chimeric mouse and humanized anti-Trop-2 6G11 antibodies (expressed in human IgG1 subtype) were assessed on Trop-2 expressing (A431 and Colo205) and non-expressing (SW620) cells by flow cytometry. 300,000 cells were used with 1 ug of primary antibody, followed by AlexaFluor 647 anti-human (Fab′)2-specific secondary antibody.

Human Trop-2-mFc = biological target: T1, Human Trop-2-mFc (Homo sapiens, UniProt P09758); assay: Biacore SPR affinity of humanized 6G11 Fab; assay type: binding; settings: Fab fragments injected over captured human Trop-2-mFc
T1 construct: Monomeric Trop-2 extracellular domain prepared from papain digestion of Trop-2-Fc fusion protein
T1 sequence (P09758 27-274 limits assumed): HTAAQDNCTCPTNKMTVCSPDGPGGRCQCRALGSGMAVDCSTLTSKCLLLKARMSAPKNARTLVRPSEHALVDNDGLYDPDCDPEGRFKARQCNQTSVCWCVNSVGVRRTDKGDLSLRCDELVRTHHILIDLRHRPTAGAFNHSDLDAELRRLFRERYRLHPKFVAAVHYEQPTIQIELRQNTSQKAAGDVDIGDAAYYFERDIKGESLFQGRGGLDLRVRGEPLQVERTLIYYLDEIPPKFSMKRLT
Protocol: The affinities of humanized 6G11 antibodies were measured on a surface plasmon resonance Biacore™ 2000 biosensor equipped with a research-grade CM5 sensor chip (Biacore™ AB, Uppsala, Sweden—now GE Healthcare). Human Trop-2-mFc protein was captured on the CM5 chip coupled with anti-mouse Fc. Human 6G11_WT or Human 6G11_FKG_SF chimeric Fab fragments were injected as 3 fold dilution series.

[1] = tested on: cynomolgus monkey Trop-2-hFc; assay: Biacore SPR affinity of chimeric and humanized 7E6 Fab, cynomolgus Trop-2; assay type: binding; settings: recombinant Fab fragments injected over captured cynomolgus monkey Trop-2-hFc
Description: (§1) The human Trop-2-hFc or cynomolgus monkey Trop-2-hFc proteins were captured on the CM5 EDA chip 37 sensor surface coupled with anti-human Fc.

human Trop-2-hFc = biological target: T2, human Trop-2-hFc (Homo sapiens, UniProt P09758); assay: Biacore SPR affinity of chimeric and humanized 7E6 Fab, human Trop-2; assay type: binding; settings: recombinant Fab fragments injected over captured human Trop-2-hFc
T2 construct: Monomeric Trop-2 extracellular domain prepared from papain digestion of Trop-2-Fc fusion protein
T2 sequence (P09758 27-274 limits assumed): T1 sequence (P09758 27-274 limits assumed)
Description: as §1

ka (Human Trop-2-mFc): 360000 M⁻¹ s⁻¹
kd (Human Trop-2-mFc): 0.0096 s⁻¹
B1: h6G11: humanized anti-Trop-2 antibody, VL SEQ ID NO: 10, VH SEQ ID NO: 11 (antibody, V domains shown)
VH: QVQLVQSGAEVKKPGASVKVSCKASGYTFTSYWINWVRQAPGQGLEWMGNIYPSDSYSNYNQKFKDRVTMTRDTSTSTVYMELSSLRSEDTAVYYCARGSSFDYWGQGTLVTVSS
VL: EIVLTQSPATLSLSPGERATLSCRASQTIGTSIHWYQQKPGQAPRLLIYYASESISGIPARFSGSGSGTDFTLTISSLEPEDFAVYYCQQSNSWPFTFGQGTKLEIK
% positive (SW620 (Trop-2 −) cells; Table 11, 300,000 cells): 3.9%
MFI (SW620 (Trop-2 −) cells; Table 11, 300,000 cells): 154

ka (Human Trop-2-mFc): 640000 M⁻¹ s⁻¹
kd (Human Trop-2-mFc): 0.00038 s⁻¹
B2: h6G11_FKG_SF: humanized anti-Trop-2 antibody, VL SEQ ID NO: 12, VH SEQ ID NO: 13 (antibody, V domains shown)
VH: B1 VH with Y52F, Q62K, S101G
VL: B1 VL with Q89S, N92F
% positive (SW620 (Trop-2 −) cells; Table 11, 300,000 cells): 2.5%
MFI (SW620 (Trop-2 −) cells; Table 11, 300,000 cells): 157

kd [1]: 7.42e-05 s⁻¹
ka (human Trop-2-hFc): 131000 M⁻¹ s⁻¹
kd (human Trop-2-hFc): 3.27e-05 s⁻¹
B3: h7E6_SVGL: humanized anti-Trop-2 antibody, VL SEQ ID NO: 6, VH SEQ ID NO: 5 (antibody, V domains shown)
VH: QVQLQESGPGLVKPSETLSLTCTVSGGSISSYGVHWIRQPPGKGLEWIGVIWTSGVTDYNSALMGRVTISVDTSKNQFSLKLSSVTAADTAVYYCARDGDYDRYTMDYWGQGTLVTVSS
VL: DIVMTQSPDSLAVSLGERATINCRASKSVSTSLYSYMHWYQQKPGQPPKLLIYLASNLESGVPDRFSGSGSGTDFTLTISSLQAEDVAVYYCQHSRELPYTFGQGTKLEIK
% positive (SW620 (Trop-2 −) cells; Table 10, 300,000 cells): 2.6%
MFI (SW620 (Trop-2 −) cells; Table 10, 300,000 cells): 135
ka [1]: 130000 M⁻¹ s⁻¹
